1 molecule from US20230272390A1, “COMPOSITIONS AND METHODS FOR HEMOGLOBIN PRODUCTION” (THE CHILDREN'S HOSPITAL OF PHILADELPHIA, priority 2020, published 2023) can be followed below.

Assay [1] deals with negative control oligo (shares 7/17 bp with the consensus motif). As to the kind of experiment: Fluorescence polarization DNA binding assay, negative control oligo. The following applies: same conditions. As to the method:
(§1) The fragment of Human ZNF410 (NP_001229855.1) comprising of five zinc finger domains ZF1-5 (residues 217-366) was cloned into pGEX-6P-1 vector with a GST fusion tag (pXC2180). The plasmid was transformed into Escherichia coli strain BL21-Codon-plus(DE3)-RIL (Stratagene). Bacteria was grown in LB broth in a shaker at 37° C. until reaching the log phase (A600 nm between 0.4 and 0.5), the shaker temperature was then set to 16° C. and 25 μM ZnCl2 was added to the cell culture. When the shaker temperature reached 16° C. and A600 nm reached ˜0.8, the protein expression was induced by the addition of 0.2 mM isopropyl-3-D-thiogalactopyranoside with subsequent growth for 20 hours at 16° C. […]
(§2) Fluorescence polarization (FP) method was used to measure the binding affinity using a Synergy™ 4 Microplate Reader (BioTek). […]
(§3) To further gain insight into the molecular basis of how the ZNF410 tandem ZF domain recognizes its targeting DNA sequence, crystallization of the ZNF410-DNA complex was performed. The binding affinity of the ZNF410 ZF domain (ZF1-5) with the consensus motif was quantified by fluorescence polarization using purified GST fusion protein (Patel, et al. (2016) Methods Enzymol., 573:387-401). […]
For orientation: Fluorescence polarisation rises when a labelled molecule tumbles more slowly, as on binding a larger partner.

Assay [2] addresses oligo containing the consensus motif. As to the kind of experiment: Fluorescence polarization DNA binding assay, consensus oligo. Set-up: species or system human. The following applies: purified GST fusion protein, 17-bp oligo containing the consensus motif, read-out: dissociation constant (KD). Here is the method: as §1, §2, §3

B1: ZF1-5: fragment of human ZNF410 comprising five zinc finger domains ZF1-5 (residues 217-366); dominant-negative when overexpressed (protein)
chain: KKLKCTVEGCDRTFVWPAHFKYHLKTHRNDRSFICPAEGCGKSFYVLQRLKVHMRTHNGEKPFMCHESGCGKQFTTAGNLKNHRRIHTGEKPFLCEAQGCGRSFAEYSSLRKHLVVHSGEKPHQCQVCGKTFSQSGSRNVHMRKHHLQLG
modifications: left off: small tags and cut ends
notes: fragment of human ZNF410 comprising five zinc finger domains ZF1-5 (residues 217-366); dominant-negative when overexpressed
Take B1: the “binding to the negative control oligo” value in assay [1] is given as “no measurable binding”. Besides, in assay [2], the Kd (in general, the constant that tells how readily two partners part at equilibrium) was 22 nM.
